Substitutions are numbered along the chain they refer to. Blank lines part the entries; values can stand above or below the binder they belong to.
Key:
[1] = target: human Unc5B-His (two N-terminal Ig-like domains of Unc5B, amino acid M1 to amino acid V243, C-terminal Histidine tag) (human) (UniProt Q8IZJ1); experiment: SPR (ProteOn XPR36), antibody immobilised, human Unc5B-His as analyte
Murine Unc5B (mouse) = Murine Unc5B (mouse) (UniProt Q8K1S3); experiment: SPR (ProteOn XPR36), antibody immobilised, murine Unc5B-His as analyte
Chain of Murine Unc5B (mouse) (Q8K1S3 27-243 limits assumed, form in doubt): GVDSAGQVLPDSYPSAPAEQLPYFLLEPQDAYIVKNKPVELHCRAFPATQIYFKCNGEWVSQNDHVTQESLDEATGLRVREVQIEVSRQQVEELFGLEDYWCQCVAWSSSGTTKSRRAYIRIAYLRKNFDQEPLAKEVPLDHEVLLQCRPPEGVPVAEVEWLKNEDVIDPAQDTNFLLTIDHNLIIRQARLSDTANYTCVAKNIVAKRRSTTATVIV

Kd [1]: 20 nM | Kd (Murine Unc5B (mouse)): 1.1 nM
B1: YW 88.7 (antibody, part only; not given: constant regions, part only)
heavy chain, part: EVQLVESGGGLVQPGGSLRLSCAASGFTFSDNWISWVRQAPKGLEWVGGIYPAGGYTYYADSVKGRFTISADTSKNTAYLQMSLRAEDTAVYYCAHDIHTRIAVMDYWGQGTLVTVSS
light chain: DIQMTQSPSSLSASVGDRVTITCRASQDVSTAVAWYQQKPGKAPKLLIYSASFLYSGVPSRFSGSGSGTDFTLTISSLQPEDFATYYCQQSYTTPPTFGQGTKVEIKR

Kd [1]: 84 nM
B2: YW 88.64 (antibody, part only; not given: constant regions, part only)
heavy chain, part: EVQLVESGGGLVQPGGSLRLSCAASGFTFSNSGISWVRQAPKGLEWVGYIYPDNGSTNYADSVKGRFTISADTSKNTAYLQMSLRAEDTAVYYCARGVWWFDYWGQGTLVTVSS
light chain: B1 light chain

Kd [1]: 2.9 nM
B3: YW 83.4 (antibody, part only; not given: constant regions, part only)
heavy chain, part: EVQLVESGGGLVQPGGSLRLSCAASGFTFTNYDIHWVRQAPKGLEWVGWISPSGGYTNYADSVKGRFTISADTSKNTAYLQMSLRAEDTAVYYCARQLWAVRGWVMDYWGQGTLVTVSS
light chain: B1 light chain

Kd [1]: 4.1 nM
B4: YW 83.7 (antibody, part only; not given: constant regions, part only)
heavy chain, part: B3 heavy chain, part with N31G, Y32S, D33S, S51T, S53N, L98S, A100V, V101L, V105A
light chain: B1 light chain

— patent US20100221262A1
